The text below walks through data of article PMC8035206.

The target of this series is N-mEGFP full length (nucleocapsid) (SARS-CoV-2, UniProt P0DTC9 1-419). Briefly: EMSA; 200 nM RNA; N-mEGFP titrated. Conditions: protein: recombinant; tags: C-terminal mEGFP; pET28a(+), Ni-purified (His tag implied); chain copies: 2. (In EMSA bound probe runs differently from free probe, usually more slowly.)

B1: 55-nt vRNA (5' UTR segment) (ssRNA)
RNA: AUUAAAGGUUUAUACCUUCCCAGGUAACAAACCAACCAACUUUCGAUCUCUUGUA
Take B1: the binding result is listed as “binds”.
